{"source": "patent US20140255304", "about": "“TDP-43 SPECIFIC BINDING MOLECULES” (BIOGEN IDEC INTERNALTIONAL NEUROSCIENCE GMBH, published 2014)", "target": "TDP-43 full length (residues 1-414) (Homo sapiens, UniProt Q13148 SEQ:1-414)", "sequence (Q13148 whole entry, the tested form may be a part)": "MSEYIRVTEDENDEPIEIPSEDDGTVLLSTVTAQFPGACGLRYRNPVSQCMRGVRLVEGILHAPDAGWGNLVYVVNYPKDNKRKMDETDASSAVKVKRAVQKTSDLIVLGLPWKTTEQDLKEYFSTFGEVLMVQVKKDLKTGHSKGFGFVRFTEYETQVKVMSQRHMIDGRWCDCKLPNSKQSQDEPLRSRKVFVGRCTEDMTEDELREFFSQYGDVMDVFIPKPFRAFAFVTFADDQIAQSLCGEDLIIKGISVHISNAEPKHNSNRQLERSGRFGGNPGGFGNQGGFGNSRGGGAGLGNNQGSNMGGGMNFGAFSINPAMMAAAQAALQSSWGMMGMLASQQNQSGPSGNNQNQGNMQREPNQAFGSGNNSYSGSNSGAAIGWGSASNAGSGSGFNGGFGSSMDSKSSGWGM", "assay": "FP; at least 30-fold higher affinity than for U12 control; 40 mM HEPES, 0.5 M KCl, 0.4 M arginine, pH 7.4, 25 C", "conditions": "tags: N-terminal 6xHis-SUMO, expressed in E. coli BL21(DE3) Star; label: 5' TYE fluorophore", "procedure": "Equilibrium binding affinities of TDP-43 constructs for RNA were determined using fluorescence polarization. 5′TYETM fluorophore labeled RNA substrates, specific RNA (TYETM-[…]) (SEQ ID NO: 312) and RNA control (TYETM-[…]) (SEQ ID NO: 313) (integrated DNA Technologies), were incubated at a concentration of 5 nM for 30 min at 25° C. with TDP-43 (final concentrations 0 to 20 μM) in incubation buffer as indicated. Fluorescence polarization was measured with the plate reader fluorometer Envision (PerkinElmer) at each concentration of TDP-43 in a 96 well plate format with an excitation at 645 nm and emission at 665. Kds were calculated using the quadratic equation for tight binding (Morrison equation) using Sigmaplot (Systat Software Inc.). […] Stoichiometries were calculated by measuring the intercept of two straight lines, one fit using data points of the partially bound state, and the other using data points of the fully bound state.\nThe recombinant full-length TDP-43 was monomeric by sedimentation analysis (FIG. 8C) in buffer containing 400 mM arginine."}
{"binder": "UGUGUGUGUGUG (ssRNA)", "note": "[(UG)6 specific RNA]", "values": [{"measurement": "binding signal", "result": "≥ 30", "unit": "fold"}]}
